Read-outs that look alike come from different tables or passages of the source. Where no end group is shown, it is not given here.
Tests used:
E2 peptide B1 [1] = biological target: T1, E2 peptide B1 (not fully specified (residue 16, C-terminus); also: biotin at C-terminal GSGK, site not given here); experiment: peptide ELISA, signal as percent of maximum H6 binding
T1 peptide: NLINTNGSWHINGSGK

[2] = biological target: T2, peptide H6 (AP33 mimotope) (not fully specified (residue 16, C-terminus); printed as VELRNLGGTWRPGSGK-biotin; also: biotin at C-terminal GSGK, site not given here); experiment: peptide ELISA, biotinylated peptide on streptavidin, COS7 supernatant, OD 655 nm
T2 construct: Mimotope for AP33 identified by phage display; captured on streptavidin plates; also called mimotope H6; H6 mimotope
T2 peptide: VELRNLGGTWRPGSGK

[3] = biological target: T2, peptide H6 (AP33 mimotope); experiment: as above
Peptide D3 [4] = biological target: T3, Peptide D3 (also: C-terminal linker GSGK-biotin, biotin attachment not given here); experiment: as above
T3 peptide: QLINTNGSWHINGSGK

[5] = biological target: T2, peptide H6 (AP33 mimotope); experiment: as above
E2 peptide B1 [6] = biological target: T1, E2 peptide B1; experiment: as above
Peptide D3 [7] = biological target: T3, Peptide D3; experiment: as above
[8] = biological target: T2, peptide H6 (AP33 mimotope); experiment: as above
E2 peptide B1 [9] = biological target: T1, E2 peptide B1; experiment: as above
E2 peptide B1 [10] = biological target: T1, E2 peptide B1; experiment: as above
[11] = biological target: T2, peptide H6 (AP33 mimotope); experiment: as above
Peptide D3 [12] = biological target: T3, Peptide D3; experiment: as above
[13] = biological target: T2, peptide H6 (AP33 mimotope); experiment: as above
E2 peptide B1 [14] = biological target: T1, E2 peptide B1; experiment: as above
Peptide D3 [15] = biological target: T3, Peptide D3; experiment: as above
E2 peptide B1 [16] = biological target: T1, E2 peptide B1; experiment: as above
E2 peptide B1 [17] = biological target: T1, E2 peptide B1; experiment: as above
[18] = biological target: HCV E1E2 glycoproteins of isolate 2B1.1 on HCVpp (Hepatitis C virus genotype 2); experiment: cell-based or functional assay
[19] = biological target: HCV E1E2 glycoproteins of isolate 1B5.23 on HCVpp (Hepatitis C virus genotype 1); experiment: cell-based or functional assay
[20] = biological target: HCV E1E2 glycoproteins of isolate 4.21.16 on HCVpp (Hepatitis C virus genotype 4); experiment: cell-based or functional assay
[21] = biological target: HCV E1E2 glycoproteins of isolate 6.5.8 on HCVpp (Hepatitis C virus genotype 6); experiment: cell-based or functional assay
[22] = biological target: HCV E1E2 glycoproteins of isolate 1A20.8 on HCVpp (Hepatitis C virus genotype 1); experiment: cell-based or functional assay
[23] = biological target: HCV E1E2 glycoproteins of genotype 2a JFH1 on HCVpp (Hepatitis C virus genotype 2a, UniProt Q99IB8 384-750; Q99IB8 192-383); experiment: cell-based or functional assay
[24] = biological target: HCV E1E2 glycoproteins of genotype 3a F4/2-35 on HCVpp (Hepatitis C virus genotype 3a); experiment: cell-based or functional assay
[25] = biological target: HCV E1E2 glycoproteins of isolate 2A2.4 on HCVpp (Hepatitis C virus genotype 2); experiment: cell-based or functional assay
[26] = biological target: HCV E1E2 glycoproteins of isolate 5.15.11 on HCVpp (Hepatitis C virus genotype 5); experiment: cell-based or functional assay
Peptide D3 [27] = biological target: T3, Peptide D3; experiment: peptide ELISA, signal as percent of maximum H6 binding

HCV E1E2 glycoproteins of genotype 2a JFH1 on HCVpp, sequence (Q99IB8 384-750 limits assumed, chain 1 of 2): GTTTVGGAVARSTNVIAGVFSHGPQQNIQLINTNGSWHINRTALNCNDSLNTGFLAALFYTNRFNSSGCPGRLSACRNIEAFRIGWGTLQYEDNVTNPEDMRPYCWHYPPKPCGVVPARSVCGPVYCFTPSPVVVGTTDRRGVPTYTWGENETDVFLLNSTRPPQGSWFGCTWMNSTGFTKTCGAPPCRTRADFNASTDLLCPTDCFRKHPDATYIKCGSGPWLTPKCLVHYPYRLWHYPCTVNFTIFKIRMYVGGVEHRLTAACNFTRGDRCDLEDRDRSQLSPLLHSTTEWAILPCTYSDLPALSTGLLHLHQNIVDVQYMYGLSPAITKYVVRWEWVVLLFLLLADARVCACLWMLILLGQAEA
HCV E1E2 glycoproteins of genotype 2a JFH1 on HCVpp, sequence (Q99IB8 192-383 limits assumed, chain 2 of 2): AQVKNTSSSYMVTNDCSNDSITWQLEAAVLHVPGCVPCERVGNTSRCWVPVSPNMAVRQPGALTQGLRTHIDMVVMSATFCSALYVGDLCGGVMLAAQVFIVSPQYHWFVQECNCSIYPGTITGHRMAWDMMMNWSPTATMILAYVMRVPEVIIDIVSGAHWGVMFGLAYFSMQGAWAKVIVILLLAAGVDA

B1: humanized AP33 antibody RHb-h/RK2bc (antibody, V domains shown)
VH: QVQLQESGPGLVKPSETLSLTCTVSGDSITSGYWNWIRQPPGRALEYMGYISYSGSTYYNLSLRSRITISRDTSKNQYSLRLSSVTAADTAMYYCALITTTTYAMDYWGQGTTVTVS
VL: EIVLTQSPSSLSASVGDRVTITCRASESVDGYGNSFLHWFQQKPGKAPKLLIYLASNLNSGVPSRFSGSGSRTDFTLTISSLQPEDFATYYCQQNNVDPWTFGQGTKLEIK
notes: also called RHbcdefgh/RK2bc; RHb-h standard
Does B1 bind (E2 peptide B1 [1])?
Result: no binding (tested: at least about 500 ng/ml)

What about the “EC50 (read off the curve)” value [2] of the same binder?
Its value is ~0.04 µg/mL.

What about the “EC50 (read off the curve)” value [3] of the same binder?
The value was ~0.04 µg/mL.

What about the “EC50 (read off the curve)” value (Peptide D3 [4]) of the same binder?
The value was ~0.05 µg/mL.

B2: humanized AP33 antibody RH-C/RK2bc (antibody, V domains shown)
VH: QVQLQESGPGLVKPSETLSLTCTVSGDSITSGYWNWIRQPPGRALEWMGYISYSGSTYYNLSLRSRITISRDTSKNQYSLRLSSVTAADTAMYYCALITTTTYAMDYWGQGTTVTVSS
VL: EIVLTQSPSSLSASVGDRVTITCRASESVDGYGNSFLHWFQQKPGKAPKLLIYLASNLNSGVPSRFSGSGSRTDFTLTISSLQPEDFATYYCQQNNVDPWTFGQGTKLEIK
notes: also called RH-C (peptide ELISA, paired with RK2bc)
For B2, which “EC50 (read off the curve)” value [5] is on record?
The value was ~0.04 µg/mL.

Does B2 bind (E2 peptide B1 [6])?
Result: no binding (tested: about 2000 ng/ml)

What about the “EC50 (read off the curve)” value (Peptide D3 [7]) of the same binder?
The value was ~0.05 µg/mL.

B3: humanized AP33 antibody RH-G/RK2bc (antibody, V domains shown)
VH: QVQLQESGPGLVKPSETLSLTCTVSGDSITSGYWNWIRQPPGRALEYMGYISYSGSTYYNLSLRSRITISRDTSKNQFSLRLSSVTAADTAMYYCALITTTTYAMDYWGQGTTVTVS
VL: EIVLTQSPSSLSASVGDRVTITCRASESVDGYGNSFLHWFQQKPGKAPKLLIYLASNLNSGVPSRFSGSGSRTDFTLTISSLQPEDFATYYCQQNNVDPWTFGQGTKLEIK
B3 was tested. Which “EC50 (read off the curve)” value [8] did it give?
Its value is ~0.03 µg/mL.

Does B3 bind (E2 peptide B1 [9])?
Result: no binding (tested: about 700 ng/ml)

B4: AP33 RH-E/RK2bc (antibody, V domains shown)
VH: QVQLQESGPGLVKPSETLSLTCTVSGDSITSGYWNWIRQPPGRALEYMGYISYSGSTYYNLSLRSRVTISRDTSKNQYSLRLSSVTAADTAMYYCALITTTTYAMDYWGQGTTVTVS
VL: EIVLTQSPSSLSASVGDRVTITCRASESVDGYGNSFLHWFQQKPGKAPKLLIYLASNLNSGVPSRFSGSGSRTDFTLTISSLQPEDFATYYCQQNNVDPWTFGQGTKLEIK
Does B4 bind (E2 peptide B1 [10])?
Result: no binding (tested: about 800 ng/ml)

B5: humanized AP33 antibody RH-H/RK2bc (antibody, V domains shown)
VH: QVQLQESGPGLVKPSETLSLTCTVSGDSITSGYWNWIRQPPGRALEYMGYISYSGSTYYNLSLRSRITISRDTSKNQYSLRLSSVTAADTAMYYCARITTTTYAMDYWGQGTTVTVS
VL: EIVLTQSPSSLSASVGDRVTITCRASESVDGYGNSFLHWFQQKPGKAPKLLIYLASNLNSGVPSRFSGSGSRTDFTLTISSLQPEDFATYYCQQNNVDPWTFGQGTKLEIK
notes: also called RH-H (peptide ELISA, paired with RK2bc)
Does B5 bind (E2 peptide B1 [1])?
Result: no binding (tested: at least about 500 ng/ml)

What about the “EC50 (read off the curve)” value [11] of the same binder?
Its value is ~0.03 µg/mL.

And the “EC50 (read off the curve)” value (Peptide D3 [12])?
Its value is ~0.04 µg/mL.

B6: AP33 RH-D/RK2bc (antibody, V domains shown)
VH: QVQLQESGPGLVKPSETLSLTCTVSGDSITSGYWNWIRQPPGRALEYIGYISYSGSTYYNLSLRSRITISRDTSKNQYSLRLSSVTAADTAMYYCALITTTTYAMDYWGQGTTVTVS
VL: EIVLTQSPSSLSASVGDRVTITCRASESVDGYGNSFLHWFQQKPGKAPKLLIYLASNLNSGVPSRFSGSGSRTDFTLTISSLQPEDFATYYCQQNNVDPWTFGQGTKLEIK
Which “EC50 (read off the curve)” value [13] does the source give for B6 here?
Its value is ~0.04 µg/mL.

Does B6 bind (E2 peptide B1 [14])?
Result: no binding (tested: about 900 ng/ml)

What about the “EC50 (read off the curve)” value (Peptide D3 [15]) of the same binder?
Its value is ~0.04 µg/mL.

B7: humanized AP33 antibody RH-F/RK2bc (antibody, V domains shown)
VH: QVQLQESGPGLVKPSETLSLTCTVSGDSITSGYWNWIRQPPGRALEYMGYISYSGSTYYNLSLRSRITISVDTSKNQYSLRLSSVTAADTAMYYCALITTTTYAMDYWGQGTTVTVS
VL: EIVLTQSPSSLSASVGDRVTITCRASESVDGYGNSFLHWFQQKPGKAPKLLIYLASNLNSGVPSRFSGSGSRTDFTLTISSLQPEDFATYYCQQNNVDPWTFGQGTKLEIK
Does B7 bind (E2 peptide B1 [16])?
Result: no binding (tested: about 500 ng/ml)

B8: AP33 RH-B/RK2bc (antibody, V domains shown)
VH: QVQLQESGPGLVKPSETLSLTCTVSGDSISSGYWNWIRQPPGRALEYMGYISYSGSTYYNLSLRSRITISRDTSKNQYSLRLSSVTAADTAMYYCALITTTTYAMDYWGQGTTVTVSS
VL: EIVLTQSPSSLSASVGDRVTITCRASESVDGYGNSFLHWFQQKPGKAPKLLIYLASNLNSGVPSRFSGSGSRTDFTLTISSLQPEDFATYYCQQNNVDPWTFGQGTKLEIK
Does B8 bind (E2 peptide B1 [17])?
Result: no binding (tested: about 800 ng/ml)

B9: chimeric AP33 antibody (Vh/Vl) (antibody, V domains shown)
VH: EVQLQESGPSLVKPSQTLSLTCSVTGDSITSGYWNWIRKFPGNKLEYMGYISYSGSTYYNLSLRSRISITRDTSKNQYYLQLNSVTTEDTATYYCALITTTTYAMDYWGQGTSVTVS
VL: NIVLTQSPVSLAVSLGQRATISCRASESVDGYGNSFLHWFQQKPGQPPKLLIYLASNLNSGVPARFSGSGSRTDFTLTIDPVEADDAATYYCQQNNVDPWTFGGGTKLEIK
notes: also called chimeric antibody
For B9, which “IC50 of HCVpp infection of Huh-7 cells (luciferase)” value (shortened to “IC50”) [18] is on record?
Its value is 3 µg/mL.

And the “IC90 of HCVpp infection of Huh-7 cells (luciferase)” value (“IC90” below) [18]?
The value was > 15 µg/mL.

And the “IC50” value [19]?
Its value is 1.15 µg/mL.

And the “IC90” value [19]?
Its value is 11 µg/mL.

What about the “IC50” value [20] of the same binder?
The value was < 0.137 µg/mL.

What about the “IC90” value [20] of the same binder?
The value was 0.83 µg/mL.

And the “IC50” value [21]?
The value was < 0.137 µg/mL.

And the “IC90” value [21]?
Its value is 3.7 µg/mL.

What about the “IC50” value [22] of the same binder?
The value was 1.1 µg/mL.

And the “IC90” value [22]?
Its value is 11.5 µg/mL.

And the “IC50” value [23]?
Its value is 1.1 µg/mL.

And the “IC90” value [23]?
Its value is 9.31 µg/mL.

What about the “IC50” value [24] of the same binder?
The value was 0.48 µg/mL.

And the “IC90” value [24]?
Its value is 3.2 µg/mL.

And the “IC50” value [25]?
Its value is 0.88 µg/mL.

What about the “IC90” value [25] of the same binder?
The value was 6.67 µg/mL.

And the “IC50” value [26]?
The value was 0.088 µg/mL.

And the “IC90” value [26]?
Its value is 1.11 µg/mL.

And the “EC50 (read off the curve)” value (Peptide D3 [27])?
The value was ~0.02 µg/mL.
